From patent US10677782B2, “Methods of determining interferon having direct inhibitory effects on tumors and uses thereof” (SUPERLAB FAR EAST LIMITED, priority 2013, dated 2020)

Tests used:
ID2 mRNA in A549 cells = assay: qPCR of Wnt pathway target genes in A549 cells; assay type: cell-based, human; details: 10 μg/ml, 24 hr; Mock control set at 1
Procedure: After 24 hr of treatment, cellular total mRNA was isolated using TRIZOL Reagent and cDNA was synthesized and further subjected to qPCR, using specific primers of four (4) Wnt signaling downstream genes, Axin2, CD24, Survivin and ID2. Experiments were conducted in triplicate and normalized with the Mock group.
Total mRNA was isolated using TRIZOL Reagent (Invitrogen, Carlsbad, Calif.) according to the manufacturer's instructions. Complementary DNA (cDNA) was synthesized using a RT-PCR Kit (Cat #: FSQ-101, TOYOBO, Japan) according to the manufacturer's instructions and then subjected to qPCR with a SYBR Green PCR kit (Cat #: QPK-201, TOYOBO, Japan). The primers of the four Wnt pathway target genes were as follows: Axin2 sense primer: 5′-[…]-3′ (SEQ ID NO:8) and antisense primer: 5′-[…]-3′ (SEQ ID NO: 9); CD24 sense primer: 5′-[…]-3′ (SEQ ID NO: 10) andantisense primer: 5′-[…]-3′ (SEQ ID NO: 11); Survivin sense primer: 5′-[…]-3′ (SEQ ID NO: 12) and antisense primer: 5′-[…]-3′ (SEQ ID NO: 13) and ID2 sense primer: 5′-[…]-3′ (SEQ ID NO: 14) and antisense primer: 5′-[…]-3′ (SEQ ID NO: 15).
The amplification protocol consisted of incubations at 95° C. for 1 minute, 40 cycles (95° C. for 15 seconds, 60° C. for 15 seconds, 72° C. for 30 seconds). Incorporation of the SYBR Green dye into PCR products was monitored in real time with a Bio-Rad Detection System and subsequently analyzed using Bio-Rad CFX manager 2.1 software. The samples were pooled for each condition and run in duplicate. Treated samples were compared to Mock using the 2^−ΔΔCt method and plotted as fold change. GAPDH was used as the normalization control.

[1] = Tolerability and body weight of tumor-bearing mice, Example 2; assay type: in vivo, BALB/cA nu/nu mice
Procedure: Animals were assigned to treatment groups randomly. Initially, all animals were placed in one large animal cage. For assignment to the study, they were later separately housed, with 6 animals per cage per treatment group. Groups 1 and 2 are Control groups in which the animals were each administered the vehicle every other day after the first treatment. […] The animals in Groups 4, 5 and 6 were each given rSIFN-co every other day after the first treatment at 0.15 mg/mouse (Group 4) or 0.10 mg/mouse (Group 5) or 0.05 mg/mouse (Group 6), respectively. Tumor growth was monitored by measuring the length and width of each tumor twice a week during the course of the study. Each animal was also weighed twice a week during the course of the study.
The study was conducted as in Example 1 except as specifically indicated otherwise. Human cervical cancer xenografts were first established and prepared in a similar manner as in Example 1, by inoculating 5×10^6 Hela cells subcutaneously in nude mice and passaging the well-grown xenografts twice in nude mice. Then 1.5 mm^3 fragments were prepared for s.c. implantation into the animals. The body weight of the animals averaged 19±2 g at dose initiation In contrast to Example 1, the animals used were all female.

A549 tumor cells = assay: Cell viability over 1-6 days, MTT assay; assay type: cell-based, human; details: 10 μg/ml
Procedure: The cell survival rate was evaluated in a standard MTT assay (3-(4,5-dimethylthiazol-2-yl)-2,5-diphenyltetrazolium bromide assay, Sigma, St. Louis, Mo.). For the assay, about 20 μl MTT (at […]) was added to each well. The cells were incubated at 37° C. for 4 hr. After that, the supernatant of each well was drawn off carefully and then an equal volume (150 microliter) of dimethyl sulfoxide (DMSO) was added to each well and mixed thoroughly on a shaker for 15 min. The absorbance from the plates was read at 595 nm with a Thermo Scientific Microplate Reader (Thermo Fisher Scientific Inc., Lowell, Mass.). The relative cell viability was calculated as follows: Cell viability=(Treated group(OD595) minus blank(OD595))/(Control group(OD595) minus blank(OD595))×100%.

[2] = tested on: Human Cervical Cancer Hela Xenografts; assay: Human cervical cancer Hela xenografts in nude mice (Example 2); assay type: in vivo; details: for TV (mm^3, mean ± SD) (D0): day 0, start of treatment; for TV (mm^3, mean ± SD) (D28): day 28
Procedure: Before commencement of this study, the xenografts were passaged twice in nude mice. Under sterile conditions, well-grown tumors were cut into 1.5 mm^3 fragments and one such fragment was injected by trocar needle into the right flank of each study animal. […] Individual tumor size (length and width) was measured twice per week with microcalipers. Tumor volume (V) was calculated using the formula: V=(length×width^2)/2. Individual relative tumor volume (RTV) was calculated using the formula: RTV=Vt/V0, where Vt is the tumor volume on the day of measurement and V0 is the tumor volume on the day of first treatment. Therapeutic effect of the test article or control article was expressed in terms of TIC (%), using the formula: TIC (%) (mean RTV of the treated group/mean RTV of the control group)×100%; and in terms of % Inhibition, using the formula: % Inhibition=100%−T/C %.
Then 1.5 mm^3 fragments were prepared for s.c. implantation into the animals.

[3] = tested on: phosphorylation of STAT1 (Tyr701), STAT2 (Tyr690), STAT3 (Tyr705) in Hela cells; assay: STAT phosphorylation by Western Blot; assay type: cell-based, human; details: 10 μg/ml; 0, 5, 15, 30, 60, 120 and 240 minutes
Description: (§1) After treatment, the cells were collected, cellular proteins were extracted and loaded onto SDS-PAGE […] for Western Blot analysis to observe the phosphorylation of STAT1 (Tyr701), STAT2 (Tyr690), and STAT3(Tyr705). GAPDH was used as a loading control.
(§2) The primary antibodies used were: STAT1 (1:1000, Cat #: 9175S), Tyr701 phosphorylated-STAT1 (1:1000, Cat #: 9167S), STAT2 (1:500, Cat #4594), Tyr690 phosphorylated-STAT2 (1:1000, Cat #: 441S), STAT3 (1:1000, Cat #: 9132), Tyr705 phosphorylated-STAT3 (1:1000, Cat #: 9145S). Anti-mouse (Cat #: sc-2005) or rabbit (Cat #: sc-2004) or goat (Cat #: sc-2020) HRP-conjugated secondary antibodies (Santa Cruz Technology, Santa Cruz, Calif.) were used at concentrations of 1:2000. Blots were visualized by use of Luminescence/Fluorescence Imaging LAS4000 System (GE Healthcare Life Sciences, USA) with super signal west pico chemiluminescnet substrate kit (Thermo Scientific, USA).

[4] = tested on: phosphorylation of STAT1 (Tyr701), STAT2 (Tyr690), STAT3 (Tyr705) in A549 cells; assay: STAT phosphorylation by Western Blot; assay type: cell-based, human; details: 10 μg/ml; 0, 5, 15, 30, 60, 120 and 240 minutes
Description: as §1, §2

[5] = 0.05 mg/mouse i.t. every other day
[6] = 0.10 mg/mouse i.t. every other day
[7] = 0.15 mg/mouse i.t. every other day

B1: rSIFN-co: Recombinant super-compound interferon; amino acid sequence SEQ ID NO: 1 (same as interferon alfacon-1), encoded by SEQ ID NO: 2, novel tertiary structure (protein)
chain: MCDLPQTHSLGNRRALILLAQMRRISPFSCLKDRHDFGFPQEEFDGNQFQKAQAISVLHEMIQQTFNLFSTKDSSAAWDESLLEKFYTELYQQLNDLEACVIQEVGVEETPLMNVDSILAVKKYFQRITLYLTEKKYSPCAWEVVRAEIMRSFSLSTNLQERLRRKE
modifications: Amino acid sequence of recombinant interferon
- relative expression level of ID2 mRNA (ID2 mRNA in A549 cells): about 0.4
- tolerability: signs of toxicity ([1]; 0.05-0.15 mg/mouse i.t. every other day, 28 days): no signs of toxicity
- change in average body weight ([1]; 28-day treatment period): Very little change
- cell viability, time dependent effect (A549 tumor cells): apparent for A549 cells for only about the first 3 days of treatment
- TV (mm^3, mean ± SD) (D0) [2, 5]: 135 ± 26 mm^3
- TV (mm^3, mean ± SD) (D28) [2, 5]: 886 ± 232 mm^3
- TV (mm^3, mean ± SD) (D0) [2, 6]: 135 ± 28 mm^3
- TV (mm^3, mean ± SD) (D28) [2, 6]: 865 ± 186 mm^3
- TV (mm^3, mean ± SD) (D0) [2, 7]: 136 ± 25 mm^3
- TV (mm^3, mean ± SD) (D28) [2, 7]: 1025 ± 400 mm^3
- phosphorylation patterns for STAT1, STAT2 and STAT3 [3]: behaved similarly in their phosphorylation patterns for STAT1, STAT2 and STAT3
- phosphorylation patterns for STAT1, STAT2 and STAT3 [4]: behaved similarly in their phosphorylation patterns for STAT1, STAT2 and STAT3
